Earlier results on 1 molecule are cited in patent publication US20110020368A1, “TREATING CANCER BY DOWN-REGULATING FRIZZLED-4 AND/OR FRIZZLED-1” (priority 2008, published 2011).

The data set has as its system breast tumor cell lines. To be noted: interference with autocrine WNT pathway activation.

B1: sFRP1: extracellular inhibitor of WNT signaling, which competes with FZD receptors for ligand binding (protein, UniProt Q8N474 32-314, looked up)
Secreted frizzled-related …: SEYDYVSFQSDIGPYQSGRFYTKPPQCVDIPADLRLCHNVGYKKMVLPNLLEHETMAEVKQQASSWVPLLNKNCHAGTQVFLCSLFAPVCLDRPIYPCRWLCEAVRDSCEPVMQFFGFYWPEMLKCDKFPEGDVCIAMTPPNATEASKPQGTTVCPPCDNELKSEAIIEHLCASEFALRMKIKEVKKENGDKKIVPKKKKPLKLGPIKKKDLKKLVLYLKNGADCPCHQLDNLSHHFLIMGRKVKSQYLLTAIHKWDKKNKEFKNFMKKMKNHECPTFQSVFK
As to B1, the “Effect on proliferation of breast tumor cell lines” value is reported as “blocks proliferation”.
